B1: OpaE (Aspergillus ustus) (protein)
chain: MGPLRVFTDNKVKVMLLNPIGGAGFNDFVVETVLNHKDPSTHVTITSLANRIGGNQTLAYPSIRPLLYGEMIRVCLQARKENYDVLIINCFGDPMVDELQQIAGDDMVILGARQVAVQTASKISSKYAVLLPYDMKSSPDPLHQRVVADTRTAVAHPVVDMAFNDDLTPMDGESLGERLATQGKLAIKENGAEVLVLGCTAMVGCWQGLMRAVGVPVIDPTVAALRAAGKAGRLKRELVGGASTKRSGTFPTEKELKMIAESEPSYPFSGRIEI
notes: recombinant His6-tagged OpaE

Legend:
[1] = test system: T1, CC[C@H](C)[C@@H]1NC(=O)[C@@H](Cc2ccccc2)n2c1nc1c(c2=O)C=CC=CO1; test: purified protein; assay type: biochemical, Aspergillus ustus; conditions: FAD; NADPH
T1 construct: recombinant N-terminally His6-tagged OpaC from cDNA, 457 amino acids, lacking residues 248 to 252 of KIA75456

[2] = substrate: CC[C@H](C)C1=C2N=C3OC=CC=C[C@]3(O)C(=O)N2[C@H](Cc2ccccc2)C(=O)N1; test: HPLC enzyme assay with purified OpaE, Michaelis-Menten kinetics (KM); D2O labeling by LC-MS; assay type: biochemical, Aspergillus ustus

Row | Molecule | Km [1] | Km [2]
1 | OpaC (Aspergillus ustus; DEL248-252) | 430 ± 40 µM | –
2 | B1 | – | 1410 ± 50 µM

Source: paper PMC7530659, “Oxepinamide F biosynthesis involves enzymatic D-aminoacyl epimerization, 3H-oxepin formation, and hydroxylation induced double bond migration” (Nature Communications, 2020)
